Data taken from patent US20100183614A1 (COVALENT BIOSCIENCE, published 2010).

Molecular target: gp120 of HIV strain 97ZA009 (clade C, R5) (HIV-1 strain 97ZA009)
Experiment: cell-based or functional assay

B1: scFv JL427 (scFv)
scFv: QSVLTQPPSVSGAPGQRVTISCSGSSSNFGLNYVYWYQHFPGTAPKLLIYRNDQRPLGVPARFSGSKSGTSASLAISGLRSEDEADYYCQSYDNSLSGWVFGGGTQLTVLGSSGGGGSGGGGSGGSALQVQLQQSGGGLVQPGRSLRLSCAASGFTFSSYGMHWVRQAPGKGLEWVSYIGRSGSHTNYADSVKGRFTISRDNSKNTLYLQINSLRAEDTAVYYCARGLPNYGMDIWGQGTTVTVSSGSASAPTLFPAAAHHHHHHGAAEQKLISEEDLNGAA
In the case of B1, the “HIV neutralization IC50, ng/mL (97ZA009, PBMC)” value is reported as 300 ng/mL.
